Data published in publication PMC5818262 (ACS chemical biology, 2012).
Like-named read-outs stand apart in the source and are kept apart here.

Columns and labels:
Cit1 = experiment: steady-state initial rates, Hill equation fit; format: biochemical, Streptantibioticus cattleyicolor; details: read-out: K0.5
Cit2 = experiment: steady-state initial rates, Hill equation fit; format: biochemical, Streptantibioticus cattleyicolor; details: read-out: K0.5
ACS (S. cattleya) = ACS (S. cattleya) (Streptantibioticus cattleyicolor, UniProt F8K1P4); format: biochemical
AckA (S. cattleya) = AckA (S. cattleya) (Streptantibioticus cattleyicolor, UniProt G8X369); format: biochemical
GltA = GltA (Escherichia coli, UniProt P0ABH7); experiment: steady-state initial rates, Hill equation fit; format: biochemical; details: read-out: K0.5
GltA, sequence (P0ABH7 whole entry): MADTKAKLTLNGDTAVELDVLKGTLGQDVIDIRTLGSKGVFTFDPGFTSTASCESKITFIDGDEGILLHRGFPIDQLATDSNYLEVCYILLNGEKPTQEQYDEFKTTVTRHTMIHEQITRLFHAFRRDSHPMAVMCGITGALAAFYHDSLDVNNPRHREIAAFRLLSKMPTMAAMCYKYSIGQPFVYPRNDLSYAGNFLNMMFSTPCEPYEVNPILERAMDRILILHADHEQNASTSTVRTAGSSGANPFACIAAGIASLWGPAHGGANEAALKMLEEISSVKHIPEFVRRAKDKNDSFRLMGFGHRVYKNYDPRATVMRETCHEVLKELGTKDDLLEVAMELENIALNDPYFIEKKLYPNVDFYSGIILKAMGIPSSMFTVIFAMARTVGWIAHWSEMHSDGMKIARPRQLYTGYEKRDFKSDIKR

[1] = system: CC(=O)SCCNC(=O)CCNC(=O)[C@H](O)C(C)(C)COP(=O)(O)OP(=O)(O)OC[C@H]1O[C@@H](n2cnc3c(N)ncnc32)[C@H](O)[C@@H]1OP(=O)(O)O; experiment: steady-state initial rates, Hill equation fit; format: biochemical, Escherichia coli
purified protein = substrate: CC(=O)O; experiment: purified protein
[2] = substrate: CC(C)(COP(=O)(O)OP(=O)(O)OC[C@H]1O[C@@H](n2cnc3c(N)ncnc32)[C@H](O)[C@@H]1OP(=O)(O)O)[C@@H](O)C(=O)NCCC(=O)NCCSC(=O)CF; experiment: steady-state initial rates, Hill equation fit; format: biochemical, Streptomyces coelicolor
[3] = substrate: CC(=O)SCCNC(=O)CCNC(=O)[C@H](O)C(C)(C)COP(=O)(O)OP(=O)(O)OC[C@H]1O[C@@H](n2cnc3c(N)ncnc32)[C@H](O)[C@@H]1OP(=O)(O)O; experiment: steady-state initial rates, Hill equation fit; format: biochemical, Streptomyces coelicolor

Which results are given for O=C(O)CC(=O)C(=O)O [Oxaloacetate]?
Km (Cit1): 130 ± 20 µM; Km (Cit2): 3.8 ± 0.4 µM

For O=C(O)CF [compound 6, Fluoroacetate], which Km (ACS (S. cattleya)) is on record?
Its Km is 52000 µM.

And the Km (AckA (S. cattleya))?
Its Km is 5700 µM.

Which results are given for CC(C)(COP(=O)(O)OP(=O)(O)OC[C@H]1O[C@@H](n2cnc3c(N)ncnc32)[C@H](O)[C@@H]1OP(=O)(O)O)[C@@H](O)C(=O)NCCC(=O)NCCSC(=O)CF [compound 9, Fluoroacetyl-CoA]?
Km (Cit1): 16 ± 4 µM; Km (Cit2): 0.98 ± 0.05 µM; Km (GltA): 5.1 ± 0.3 µM

What does the source list for CC(=O)SCCNC(=O)CCNC(=O)[C@H](O)C(C)(C)COP(=O)(O)OP(=O)(O)OC[C@H]1O[C@@H](n2cnc3c(N)ncnc32)[C@H](O)[C@@H]1OP(=O)(O)O [compound 10, Acetyl-CoA]?
Km (Cit1): 15 ± 2 µM; Km (Cit2): 4.9 ± 0.4 µM

GltA (Escherichia coli K-12) was tested. Which K0.5 [1] did it give?
The K0.5 was 170 ± 60 µM.

What about the kcat [1] of the same molecule?
The kcat was 80 ± 10 s⁻¹.

What about the kcat/Km [1] of the same molecule?
Its kcat/Km is 500000 ± 200000 M⁻¹ s⁻¹.

B1: AckA (E. coli) (Escherichia coli K-12) (protein)
chain: MSSKLVLVLNCGSSSLKFAIIDAVNGEEYLSGLAECFHLPEARIKWKMDGNKQEAALGAGAAHSEALNFIVNTILAQKPELSAQLTAIGHRIVHGGEKYTSSVVIDESVIQGIKDAASFAPLHNPAHLIGIEEALKSFPQLKDKNVAVFDTAFHQTMPEESYLYALPYNLYKEHGIRRYGAHGTSHFYVTQEAAKMLNKPVEELNIITCHLGNGGSVSAIRNGKCVDTSMGLTPLEGLVMGTRSGDIDPAIIFHLHDTLGMSVDAINKLLTKESGLLGLTEVTSDCRYVEDNYATKEDAKRAMDVYCHRLAKYIGAYTALMDGRLDAVVFTGGIGENAAMVRELSLGKLGVLGFEVDHERNLAARFGKSGFINKEGTRPAVVIPTNEELVIAQDASRLTA
Which Km (purified protein) does the source give for B1 here?
Its Km is “(2.7 ± 0.2) × 10^4 μM”.

What about the kcat (purified protein) of the same molecule?
The kcat was 1340 s⁻¹.

And the kcat/Km (purified protein)?
The kcat/Km was 50000 M⁻¹ s⁻¹.

B2: CitA (Streptomyces coelicolor A3(2)) (protein)
chain: MSDNSVVLRYGDGEYTYPVIDSTVGDKGFDIGKLRAQTGLVTLDSGYGNTAAYKSAITYLDGEAGILRYRGYPIEQLAERSSFVEVAYLLINGELPTVDELSAFKGEITQHTLLHEDVKNFYKGFPRDAHPMAMLSSVVSALSTFYQDSHNPFDERQRNLSTIRLLAKLPTIAAYAYKKSIGHPFVYPANNLGYVENFLRMTFSVPAQEYELDPTVVAALDKLLILHADHEQNCSTSTVRLVGSSQANMFASISAGINALWGPLHGGANQSVLEMLEGIRDAGGDVDSFIRKVKNKEDGVRLMGFGHRVYKNFDPRAKIIKAAAHDVLSALGKSDELLDIALKLEEHALSDDYFVSRSLYPNVDFYTGLIYRAMGFPTEMFTVLFALGRLPGWIAQWHEMIKEPGSRIGRPRQIYTGVVERDFVPVEER
Which results are given for B2?
K0.5 [2]: 15.4 ± 0.8 µM; kcat/Km [2]: 126000 ± 8000 M⁻¹ s⁻¹; K0.5 [3]: 47 ± 2 µM; kcat [3]: 17.9 ± 0.4 s⁻¹; kcat/Km [3]: 380000 ± 10000 M⁻¹ s⁻¹
